Reference: the supplement of paper PMC12455559
± gives the standard deviation of the averaged measurements.

Assays:
[1] = melting temperature (DSF); higher = more thermostable
Procedure, shortened: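 Enzymes made in E. coli C41(DE3) were nickel-bead purified and cut free with SUMO protease before testing. Differential scanning fluorimetry gave each melting temperature. For this, 5 μL 5X Sypro Orange was added to 45 μL enzyme (0 to 0.3 mg/mL) in sealed PCR plates, and a Bio-Rad CFX96 read fluorescence from 25 °C over 250 cycles of 0.3 °C each, ramping at 0.3 °C/s.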

[2] = purified protein yield per well (BCA); higher = higher soluble expression
Procedure, shortened: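 Expression was done in E. coli C41(DE3), using 2 mL autoinduction cultures with 100 µg/mL kanamycin incubated at 37 °C for 2 h and at 18 °C for 40 h. Protein was purified on Ni-charged magnetic beads and released by SUMO protease cleavage. Yield of purified protein per well was measured with the Pierce Rapid Gold BCA kit; values below 25 ug (0.1 mg/mL) are below detection.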

[3] = PET hydrolysis, aromatic products released after 48 h (umol product/mg enzyme); higher = more PET depolymerization activity
Procedure, shortened: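 Sealed plates containing 3.5 mg PET (amorphous film or crystalline powder), 450 μL buffer and 5 μg (50 μL) tagless candidate enzyme were held 48 h at 40 or 60 °C with no shaking. Supernatants were then read at 260 and 280 nm against buffer blanks. The aromatic product detected this way, per mg enzyme, defines PET hydrolysis activity.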

[4] = substrate: cryPow, 40 °C, pH 4.5
[5] = substrate: cryPow, 40 °C, pH 5.5
[6] = substrate: cryPow, 40 °C, pH 6.5
[7] = substrate: cryPow, 40 °C, pH 7.5
[8] = substrate: cryPow, 60 °C, pH 4.5
[9] = substrate: cryPow, 60 °C, pH 5.5
[10] = substrate: cryPow, 60 °C, pH 6.5
[11] = substrate: cryPow, 60 °C, pH 7.5
[12] = substrate: aFilm, 40 °C, pH 4.5
[13] = substrate: aFilm, 40 °C, pH 5.5
[14] = substrate: aFilm, 40 °C, pH 6.5
[15] = substrate: aFilm, 40 °C, pH 7.5
[16] = substrate: aFilm, 60 °C, pH 4.5
[17] = substrate: aFilm, 60 °C, pH 5.5
[18] = substrate: aFilm, 60 °C, pH 6.5
[19] = substrate: aFilm, 60 °C, pH 7.5

With “DQGPPPTIASLSVDGAYAVMTYTDIPDVPEFGDATVYYPVDTAMPIGGVAISPGWTELQRHIEWWGPRLASHGYAVLILDTNDAMADQPEQRAEALIAAVRILRGENDRAGSPLSGRIDTEKMAIMGHSMGGGGVLIAANNYPAEIQAAIPFTPWQPAGDFSQVVAPTLVMAGSADRVASVSDHAWPHYQSIPESTIKVFLEIDGGSHFIADTSRGEDLGTIGRYGIAWLKLYLDGDERYRGFIYGDEAASDSEKFSRYVTSP [TEP021]” the melting temperature [1] was 30.7 C, the “purified protein yield per well” value [2] was 76.5 µg and the PET hydrolysis [3, 4] was under 3. It also gave a PET hydrolysis [3, 5] of under 3, a PET hydrolysis [3, 6] of under 3 and a PET hydrolysis [3, 7] of under 3. It also gave a PET hydrolysis [3, 8] of under 3, a PET hydrolysis [3, 9] of under 3 and a PET hydrolysis [3, 10] of under 3. The PET hydrolysis [3, 11] was under 3.

With “DQIGQAPTASNITGNGSFATTSASISSTVSGFGGGRVYYPTAAGTYPVIAISPGFTATWSSLAWIGPRLSSWGFVVVGIETNSIYDQPASRGNQLLAALNWAVNSSPTAVRSHVDGSRRGVAGHSMGGGGTLEALAADTTGLVKAGVPLAPWNTDKTWNNVSEPVLIVGGQADTVAPVASHSIPFYNTLAGPKTYVELTGQSHFFPQTTNATASRALVAWFKRWVSQDSRFTPFTCGFSGVAVSDFRSNAC [ESM082]” the melting temperature [1] was 67.6 C, the “purified protein yield per well” value [2] was 151 µg and the PET hydrolysis [3, 4] was 9. The PET hydrolysis [3, 5] was 22, the PET hydrolysis [3, 6] was 29 and the PET hydrolysis [3, 7] was 36. For the same sequence, the PET hydrolysis [3, 8] was under 3, the PET hydrolysis [3, 9] was 23 and the PET hydrolysis [3, 10] was 46. It also gave a PET hydrolysis [3, 11] of 65.

With “DQVGQAPTADNITGNGSFATTSAAITNQTGFGGGTVYYPTADGTYPVVAIVPGFAATWSQISWLGPRVASWGFVVVGVDTTSVFDSPQQRGDEFLAALNWAANSAPASTRGKVDGTRRGVAGWSMGGGGTLEAMAKDTTLKAGVPLAPWDTTQDWSKIGKPVFIVGAQNDLIAPPASHAIPFYNSLAGPKSYLELAGADHFFPISANPTVSRAVVSWFKRFVSADDRFAPFTCGFAGAAVSAFRTTAC [TEP103]” the melting temperature [1] was 71.8 C, the “purified protein yield per well” value [2] was 45.9 µg and the PET hydrolysis [3, 4] was 19. It also gave a PET hydrolysis [3, 5] of 35, a PET hydrolysis [3, 6] of 71 and a PET hydrolysis [3, 7] of 43.

For “DSPYQRGPDPTLASVAATRGPFATTQATVPAGNGFNGGFVYYPTDTSLGTWGAVAIVPGYSALFANEEAWMGPWLASFGFVVLGIETNSRTDGADARATQLLAGLDYLTRTSPVRSRVDANRLGVMGHSAGGAGTLLAALRRPSLKTAVGLAPGTPGNNLNMSTTQVPTLLLSGQNDGTVTPSYVQGIYNTLPATVEHAWAELAGNDHLSFTRSNPTEMRLLIPWLKIFLDSDTRYTQFLCPLADSTGVSRYSSTCPLVPSGGPTPPPTTTPPPPTTTPPPTSTPPPPTTTPPPTTPPAGTACTATYRTVNSWSGGFQAEVTVTAGSTATDGWTVRWNLGAGQSVSQVWNGTLSTSGTTATVRNAAYNGTLAPGTSTTFGFLGSGTPSSPSPTCTSP [ESM011]”, the melting temperature [1] was 62.2 C, the “purified protein yield per well” value [2] was 240 µg and the PET hydrolysis [3, 12] was under 3. The PET hydrolysis [3, 13] was under 3, the PET hydrolysis [3, 14] was under 3 and the PET hydrolysis [3, 15] was under 3. The PET hydrolysis [3, 16] was under 3, the PET hydrolysis [3, 17] was under 3 and the PET hydrolysis [3, 18] was under 3. For the same sequence, the PET hydrolysis [3, 19] was under 3, the PET hydrolysis [3, 4] was under 3 and the PET hydrolysis [3, 5] was under 3. It also gave a PET hydrolysis [3, 6] of under 3, a PET hydrolysis [3, 7] of under 3 and a PET hydrolysis [3, 8] of under 3. It also gave a PET hydrolysis [3, 9] of under 3, a PET hydrolysis [3, 10] of under 3 and a PET hydrolysis [3, 11] of under 3.

In the case of “DVNPFQRGPDPTAAGVAAARGPFATAQVTVPAGNGFGGGVVYYPTDTSQGTFGAIAIAPGYGTAWSYYAWQGPRLASFGFVVIGIETNTLNDYADARAAQLLAALDWLVTSSPVRDRVDRNRLAVGGHSMGGGGALLAAIQRPSLMTAIGMAPYVPGGDLSGIRIPTVLFAGQTDGTVTPSYALSAYTTIPGSVERAYVEIANEGHGFPAGGGGGNSGAFARTEMIWMKLFIDKDTRYAPFLCPSLSNMNGISRYQASCPLDPPGGTTPTPSATPTSSPTSTPTSTPSATSALRGAGSSRCLDVPGASQTNGTQLQIWDCNGQANQRWTSTSAGELRVYGGKCLDVNGAGTADGTSVIIWDCNGQNNQKWRLNSDGSITAVGANKCLDVSGAGTANGTKVQIWTCNGQANQRWTRT [ESM026]”, the melting temperature [1] is reported as 65.8 C, the “purified protein yield per well” value [2] is reported as 305 µg and the PET hydrolysis [3, 12] is reported as under 3. The PET hydrolysis [3, 13] was under 3, the PET hydrolysis [3, 14] was under 3 and the PET hydrolysis [3, 15] was under 3. The PET hydrolysis [3, 16] was under 3, the PET hydrolysis [3, 17] was under 3 and the PET hydrolysis [3, 18] was under 3. The PET hydrolysis [3, 19] was under 3, the PET hydrolysis [3, 4] was under 3 and the PET hydrolysis [3, 5] was 4.5 ± 0.71. For the same sequence, the PET hydrolysis [3, 6] was 8.5 ± 0.71, the PET hydrolysis [3, 7] was 9.5 ± 0.71 and the PET hydrolysis [3, 8] was under 3. The PET hydrolysis [3, 9] was under 3, the PET hydrolysis [3, 10] was under 3 and the PET hydrolysis [3, 11] was under 3.

For “EEPASGYQRGPAPTTSSIESSRGPFSTSQVSISGLSANGFGGADVYYPTDTSQGTFGAVAISPGYTARKSSMAWLASRLASQGFVVINIDTNTTSDQPASRGRQLLAALDQVTKDSRVANRIDPTRLAVVGHSMGGGGALEASRSRPSLQAAIPLTPWNTTKSFSGNQVPTLVVGAERDTVASVRSHAEPFYRSLPSAPGKAYLELAGASHFAPNTSNTTIAKHSIAWLKLFVDNDERYRQFVCPGPTSDRAVSDYQNTCSSFTP [DP053]”, the melting temperature [1] was 42.7 C, the “purified protein yield per well” value [2] was 235 µg and the PET hydrolysis [3, 13] was under 3. It also gave a PET hydrolysis [3, 14] of under 3, a PET hydrolysis [3, 15] of under 3 and a PET hydrolysis ([3]; substrate: aFilm, 40 °C, pH 8.5) of under 3. For the same sequence, the PET hydrolysis [3, 17] was under 3, the PET hydrolysis [3, 18] was under 3 and the PET hydrolysis [3, 19] was under 3. The PET hydrolysis ([3]; substrate: aFilm, 60 °C, pH 8.5) was under 3, the PET hydrolysis [3, 5] was under 3 and the PET hydrolysis [3, 6] was under 3. For the same sequence, the PET hydrolysis [3, 7] was under 3, the PET hydrolysis ([3]; substrate: cryPow, 40 °C, pH 8.5) was under 3 and the PET hydrolysis [3, 9] was under 3. The PET hydrolysis [3, 10] was under 3, the PET hydrolysis [3, 11] was under 3 and the PET hydrolysis ([3]; substrate: cryPow, 60 °C, pH 8.5) was under 3.
